Experimental data taken from PMC11145796, “Environmental activity-based protein profiling for function-driven enzyme discovery from natural communities” (Environmental Microbiome, 2024).

T1: putative esterase / UPF0227 protein ExploCarb_3811S_S4_483_length_13114_cov_941_5 (Sulfurihydrogenibium sp., UniProt A0A2J6WYH8)
T1 construct: gene C0178_06060
T1 sequence (A0A2J6WYH8 1-191): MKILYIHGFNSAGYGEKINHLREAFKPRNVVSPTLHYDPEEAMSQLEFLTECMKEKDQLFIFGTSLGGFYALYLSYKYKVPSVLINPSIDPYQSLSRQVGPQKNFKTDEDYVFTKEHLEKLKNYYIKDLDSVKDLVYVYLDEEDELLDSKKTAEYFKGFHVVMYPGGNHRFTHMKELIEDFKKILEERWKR

B1: putative esterase / UPF0227 protein ExploCarb_3811S_S4_483_length_13114_cov_941_5 (Sulfurihydrogenibium sp.) (protein)
chain: MKILYIHGFNSAGYGEKINHLREAFKPRNVVSPTLHYDPEEAMSQLEFLTECMKEKDQLFIFGTSLGGFYALYLSYKYKVPSVLINPSIDPYQSLSRQVGPQKNFKTDEDYVFTKEHLEKLKNYYIKDLDSVKDLVYVYLDEEDELLDSKKTAEYFKGFHVVMYPGGNHRFTHMKELIEDFKKILEERWKR
notes: 191 amino acids; codon-optimized gene in pET-28b(+), expressed in E. coli Rosetta(DE3), purified; motif G63-T64-S65-L66-G67

Experiments:
[1] = biological target: T1, putative esterase / UPF0227 protein ExploCarb_3811S_S4_483_length_13114_cov_941_5
[2] = substrate: CC(=O)Oc1ccc([N+](=O)[O-])cc1; assay: pNP-ester hydrolysis kinetics; assay type: biochemical, Sulfurihydrogenibium sp.; conditions: pH 8.0, 70 °C, substrate up to 0.7 mM
[3] = substrate: CCCC(=O)Oc1ccc([N+](=O)[O-])cc1; assay: pNP-ester hydrolysis kinetics; assay type: biochemical, Sulfurihydrogenibium sp.; conditions: pH 8.0, 70 °C, substrate up to 0.7 mM
[4] = substrate: CCCCCCCC(=O)Oc1ccc([N+](=O)[O-])cc1; assay: pNP-ester hydrolysis kinetics; assay type: biochemical, Sulfurihydrogenibium sp.; conditions: pH 8.0, 70 °C, substrate up to 0.7 mM

Molecule	competition with FP-alkyne labelling of purified esterase (pre-incubation) [1]	Km [2] [µM]	Km [3] [µM]	Km [4] [µM]
CCOP(=O)(OCC)Oc1ccc([N+](=O)[O-])cc1 [paraoxon]	could be strongly diminished by pre-incubation with the generic serine esterase inhibitor paraoxon	–	–	–
B1	–	120	180	160
